{
  "source": "IntAct's records for PubMed 19893486",
  "parents": {"B1": {"name": "CD44 antigen (Mus musculus), P15379 (parent)", "chain": "MDKFWWHTAWGLCLLQLSLAHQQIDLNVTCRYAGVFHVEKNGRYSISRTEAADLCQAFNSTLPTMDQMKLALSKGFETCRYGFIEGNVVIPRIHPNAICAANHTGVYILVTSNTSHYDTYCFNASAPPEEDCTSVTDLPNSFDGPVTITIVNRDGTRYSKKGEYRTHQEDIDASNIIDDDVSSGSTIEKSTPEGYILHTYLPTEQPTGDQDDSFFIRSTLATIASTVHSKSHAAAQKQNNWIWSWFGNSQSTTQTQEPTTSATTALMTTPETPPKRQEAQNWFSWLFQPSESKSHLHTTTKMPGTESNTNPTGWEPNEENEDETDTYPSFSGSGIDDDEDFISSTIATTPRVSARTEDNQDWTQWKPNHSNPEVLLQTTTRMADIDRISTSAHGENWTPEPQPPFNNHEYQDEEETPHATSTTPNSTAEAAATQQETWFQNGWQGKNPPTPSEDSHVTEGTTASAHNNHPSQRITTQSQEDVSWTDFFDPISHPMGQGHQTESKDTDSSHSTTLQPTAAPNTHLVEDLNRTGPLSVTTPQSHSQNFSTLHGEPEEDENYPTTSILPSSTKSSAKDARRGGSLPTDTTTSVEGYTFQYPDTMENGTLFPVTPAKTEVFGETEVTLATDSNVNVDGSLPGDRDSSKDSRGSSRTVTHGSELAGHSSANQDSGVTTTSGPMRRPQIPEWLIILASLLALALILAVCIAVNSRRRCGQKKKLVINGGNGTVEDRKPSELNGEASKSQEMVHLVNKEPSETPDQCMTADETRNLQSVDMKIGV"}, "B2": {"name": "Rho guanine nucleotide exchange factor TIAM1 (Mus musculus), Q60610 (parent)", "chain": "MGNAESQNVDHEFYGEKHASLGRKHTSRSLRLSHKTRRTRHASSGKAIHRNSEVSTRSSSTPSIPQSLAENGLEPFSQEGALDDFGDPIWVDRVDMGLRPVSYTDSSVTPSVDGSIVLTAASVQSMPDSEESRLYGDDATYLAEGGRRQCPYTSNGPTFMETASFKKKRSKSADIWREDSLEFSLSDLSQEHLTSNEEILGSAEEKDCEEARGMETEASPRQLSTCQRANSLGDLYAQKNSGVKANGGPRNRFSSYCRNLVSDIPDLAKHKMPPAAAEETPPYSNYNTLPCRKSHCLSEGATNPQISLSKSMQGRRAKTTQDVNTGEGSEFADSGIEGATTDTDLLSRRSNATNSSYSPPTGRAFVGSDSGSSSTGDRARQGVYENFRRELEMSTTNSESLEEAGSAHSDEQSSGTLSSPGQSDILLTAAQGTVRKAGALAVKNFLVHKKNKKVESATRRKWKHYWVSLKGCTLFFYETDGRSGIDHNSVPKHAVWVENSIVQAVPEHPKKDFVFCLSNSLGDAFLFQTTSQTELENWITAIHSACAAAVARHHHKEDTLRLLKSEIKKLEQKIDMDEKMKKMGEMQLSSVTDSKKKKTILDQIFVWEQNLEQFQMDLFRFRCYLASLQGGELPNPKRLLAFASRPTKVAMGRLGIFSVSSFHALVAARTGEIGVRRRTQAMSRSASKRRSRFSSLWGLDTTSKKKQGRPTINQVFGEGTDAVKRSLEGIFDDTVPDGKREKEVVLPSVHQHNPDCDIWVHEYFTPSWFCLPNNQPALTVVRPGDTARDTLELICKTHQLDHSAHYLRLKFLMENRVQFYIPQPEEDIYELLYKEIEICPKVTQNIHIEKSDAAADNYGFLLSSVDEDGIRRLYVNSVKETGLASKKGLKAGDEILEINNRAAGTLNSSMLKDFLSQPSLGLLVRTYPEPEGGVELLENPPHRVDGPVDLGESPLAFLTSNPGHSLSSEQGSSAETAPEEGEGPDLESSDETDHSSKSTEQVAAFCRSLHEMSPSDSSPSPQDATSPQLATTRQLSDADKLRKVICELLETERTYVKDLNCLMERYLKPLQKETFLTQDELDVLFGNLTEMVEFQVEFLKTLEDGVRLVPDLEKLEKVDQFKKVLFSLGGSFLYYADRFKLYSAFCASHTKVPKVLVKAKTDTAFKAFLDAQNPRQQHSSTLESYLIKPIQRVLKYPLLLRELFALTDAESEEHYHLDVAIKTMNKVASHINEMQKIHEEFGAVFDQLIAEQTGEKKEVADLSMGDLLLHTSVIWLNPPASLGKWKKEPELAAFVFKTAVVLVYKDGSKQKKKLVGSHRLSIYEEWDPFRFRHMIPTEALQVRALPSADAEANAVCEIVHVKSESEGRPERVFHLCCSSPESRKDFLKSVHSILRDKHRRQLLKTESLPSAQQYVPFGGKRLCALKGARPAMSRAVSAPSKSLGRRRRRLARNRFTIDSDAISASSPEKEPQQPAGGGDTDRWVEEQFDLAQYEEQDDIKETDILSDDDEFCESLKGASVDRDLQEQLQAASISQRARGRRTLDSHASRMTQLKKQAALSGINGGLESASEEVIWVRREDFAPSRKLNTEI"}, "B3": {"name": "Rho guanine nucleotide exchange factor TIAM2 (Mus musculus), Q6ZPF3 (parent)", "chain": "MGNSESQYTFQGSKNHSNTVTGAKQKPCSLKIRSVHAKDEKSLHGWTHGSSGAGYKSRSLARSCLSHFKNHQPYATRLSGPTCKVSKGTTYSKHRANTPGNDFQGNSGAFLPENGFHYVDRESEESHITSNGHLLTCYGRKESLASTPPGEDHRSPRVLIKTLGKLDGCLRVEFHNGGNPHKGTSEDPSGPVRLLRYSPTLASETCPVRETRRHSAAGSPSSQRPSPTDSRLRSSKGSSLSSESSWYDSPWGNAGEVSEVEGSFLAPSTPDPSLPSSFPPSDTKKPFNQSSSLSSLRELYKDPNLGCRSPSGTCLSSNEYISSQVSLNNRVSFASDMDVPSRVDHRDPLHYSSFTLPCRKSKALTEDAAKKDTLKARMRRFSDWTGSLSRKKRKLQEPRSMEGSEYFDSHSDGLNAEGQVPAQTSSLLWSGGSAQTLPHRSESTHAISVDPLRQNIYENFMRELEMSRSNTEHVETSTETMESSSESVSSLEQLDLLFEKEQGVVRKAGWLFFKPLVTLQKERKLELVARRKWKQYWVTLKGCTLLFYETYGKNSTEQNSAPRCALFAEDSIVQSVPEHPKKEHVFCLSNSCGDVYLFQATSQTDLENWVTAIHSACASLFAKKHGKEDTVRLLKSQTRSLLQKIDMDSKMKKMAELQLSVVSDPKNRKAIENQIRQWEQNLEKFHMDLFRMRCYLASLQGGELPNPKSLLAATSRPSKLALGRLGVLSVSSFHALVCSRDDSTLRKRTLSLTQRGKSKKGIFSSLKGLDTLARKGREKRASITQMFDSSHSHGFLGTQLPQKSTNSNKAHDLHLYGSAVDSALRDSMWEVQTYVHFQDNEGVTVTIKPEHRVEDVLALVCKMRQLEPTHYGLQLRKVVDKSVEWCVPALYEYMQEQVYDEIEVFPLSVYDVQLTKTGDMTDFGFAVTVQVDEHQHLNRIFISDVLPDSLAYGGGLRKGNEITSLNGEPVSDLDIQQMEALFSEKSVGLTLVARPVTTRRTLCASWSDSDLFSRDQKSLPPSPNQSQLLEEFLDNFRKTATSDFSNVPEITTGLKRSQTEGTLDQVPHREKMEQTFLSADQIAELCRDLNNTHTNSMEAPTESHDPPPRPLARHLSDADRLRKVIQELVDTEKSYVKDLSCLFELYLEPLQNETFLTQDEMESLFGSLPEMLEFQKVFLETLEDAISASSDFSVLETPSQFRKLLFSLGGSFLYYADHFKLYSGFCANHIKVQRVLERAKTDKAFKAFLDARNPTKQHSSTLESYLIKPVQRVLKYPLLLKELVSLTDHESEEHYHLTEALKAMEKVASHINEMQKIYEDYGMVFDQLVAEQSGTEKEVTELSMGELLMHSTVSWLNPFLSLGKARKDIELTVFVFKRAVILVYKENCKLKKKLPSNSRPAHNSADLDPFKFRWLIPISALQVRLGNTAGTENNSTWELIHTKSEIEGRPETIFQLCCSDSENKTSIVKVIRSILRENFRRHIKCELPLEKTCKDRLVPLKNRVPVSAKLASSRSLKGLRTSSSSEWPSEPSKGNSLDSDECSLSSGTQSSGCPVAESRRDSKSTELEKDAQEGLAEFPDGLIKESDILSDEDEDFHHPLKQGSPTKDIEIQFQRLKISEESDVHPVGQQPLTESGEQPKLVRGHFCPIKRKANSTKRGRGTLLKAQTRHQSLDSHPETASIDLNLVLEREFSVQSLTSVVNEEGFYETQSHGKS"}, "B4": {"name": "Rho guanine nucleotide exchange factor TIAM2 (Mus musculus), Q6ZPF3 (parent)", "chain": "B3 chain", "partner": "B1 chain"}},
  "data": [
    {"variants_of": "B1", "settings": "with tiam1_mouse Tiam1, Q60610", "values": [
      {"variant": "C760S", "effect of a mutation on the interaction": "disrupting interaction"}
    ]},
    {"variants_of": "B1", "settings": "with tiam1_mouse Tiam1, Q60610", "remark": "another data set of the same source", "values": [
      {"variant": "T762A", "effect of a mutation on the interaction": "decreasing interaction"}
    ]},
    {"variants_of": "B1", "settings": "with tiam1_mouse Tiam1, Q60610", "remark": "another data set of the same source", "values": [
      {"variant": "S754A", "effect of a mutation on the interaction": "decreasing interaction"}
    ]},
    {"variants_of": "B1", "settings": "with tiam1_mouse Tiam1, Q60610", "remark": "another data set of the same source", "values": [
      {"variant": "P753A", "effect of a mutation on the interaction": "decreasing interaction"}
    ]},
    {"variants_of": "B1", "settings": "with tiam1_mouse Tiam1, Q60610", "remark": "another data set of the same source", "values": [
      {"variant": "E752K", "effect of a mutation on the interaction": "disrupting interaction"}
    ]},
    {"variants_of": "B1", "settings": "with tiam1_mouse Tiam1, Q60610", "remark": "another data set of the same source", "values": [
      {"variant": "E755K", "effect of a mutation on the interaction": "disrupting interaction"}
    ]},
    {"variants_of": "B2", "settings": "with pard3_human PARD3, Q8TEW0", "values": [
      {"variant": "R622A", "effect of a mutation on the interaction": "decreasing interaction"},
      {"variant": "R645A", "effect of a mutation on the interaction": "decreasing interaction"}
    ]},
    {"variants_of": "B3", "settings": "with PARD3, Q8TEW0-2", "values": [
      {"variant": "K627A", "effect of a mutation on the interaction": "decreasing interaction"}
    ]},
    {"variants_of": "B3", "settings": "with pard3_human PARD3, Q8TEW0", "values": [
      {"variant": "R693A", "effect of a mutation on the interaction": "decreasing interaction"},
      {"variant": "R716A", "effect of a mutation on the interaction": "decreasing interaction"}
    ]},
    {"variants_of": "B3", "settings": "with PARD3, Q8TEW0-2", "remark": "another data set of the same source", "values": [
      {"variant": "R693A", "effect of a mutation on the interaction": "decreasing interaction"}
    ]},
    {"variants_of": "B3", "settings": "with PARD3, Q8TEW0-2", "remark": "another data set of the same source", "values": [
      {"variant": "K624A", "effect of a mutation on the interaction": "decreasing interaction"}
    ]},
    {"variants_of": "B3", "settings": "with PARD3, Q8TEW0-2", "remark": "another data set of the same source", "values": [
      {"variant": "R716A", "effect of a mutation on the interaction": "decreasing interaction"}
    ]},
    {"variants_of": "B3", "settings": "with PARD3, Q8TEW0-2", "remark": "another data set of the same source", "values": [
      {"variant": "R632A", "effect of a mutation on the interaction": "decreasing interaction"}
    ]},
    {"variants_of": "B4", "settings": "with cd44_mouse Cd44, P15379", "values": [
      {"variant": "K624A", "effect of a mutation on the interaction": "decreasing interaction"}
    ]},
    {"variants_of": "B4", "settings": "with cd44_mouse Cd44, P15379", "remark": "another data set of the same source", "values": [
      {"variant": "R693A", "effect of a mutation on the interaction": "decreasing interaction"}
    ]},
    {"variants_of": "B4", "settings": "with cd44_mouse Cd44, P15379", "remark": "another data set of the same source", "values": [
      {"variant": "R632A", "effect of a mutation on the interaction": "decreasing interaction"}
    ]},
    {"variants_of": "B4", "settings": "with cd44_mouse Cd44, P15379", "remark": "another data set of the same source", "values": [
      {"variant": "R716A", "effect of a mutation on the interaction": "decreasing interaction"}
    ]},
    {"variants_of": "B4", "settings": "with cd44_mouse Cd44, P15379", "remark": "another data set of the same source", "values": [
      {"variant": "K627A", "effect of a mutation on the interaction": "decreasing interaction"}
    ]}
  ]
}
